Measurements taken from article PMC8256032, “Regulation of Dishevelled DEP domain swapping by conserved phosphorylation sites” (Proceedings of the National Academy of Sciences of the …, 2021).

Columns and labels:
SNAP-FZD5 = SNAP-FZD5 (UniProt Q13467); experiment: SNAP-FZD5-dependent recruitment of DEP-GFP to the plasma membrane (cell scoring); details: n = 100 cells scored in each case, read off a plot; for other: % of cells with strong recruitment (category 'strong'): parent: est. 98
[1] = target: the molecule itself; experiment: SEC-MALS; unfractionated purified Lip-DEP_(402–510), Lip tag kept; Tris-buffered saline (30 mM Tris, 300 mM NaCl, NaN3 0.03%, pH 7.4), Superdex S-200 10/300
[2] = target: the molecule itself; experiment: SEC-MALS; cleaved DEP monomer incubated with urea (0 to 5 M for wt; 3 M for the mutants) for 8 h at 25 °C, then SEC-MALS in Tris-buffered saline (30 mM Tris, 300 mM NaCl, pH 7.4); monomer to domain-swapped dimer

Chain of SNAP-FZD5 (Q13467 27-585): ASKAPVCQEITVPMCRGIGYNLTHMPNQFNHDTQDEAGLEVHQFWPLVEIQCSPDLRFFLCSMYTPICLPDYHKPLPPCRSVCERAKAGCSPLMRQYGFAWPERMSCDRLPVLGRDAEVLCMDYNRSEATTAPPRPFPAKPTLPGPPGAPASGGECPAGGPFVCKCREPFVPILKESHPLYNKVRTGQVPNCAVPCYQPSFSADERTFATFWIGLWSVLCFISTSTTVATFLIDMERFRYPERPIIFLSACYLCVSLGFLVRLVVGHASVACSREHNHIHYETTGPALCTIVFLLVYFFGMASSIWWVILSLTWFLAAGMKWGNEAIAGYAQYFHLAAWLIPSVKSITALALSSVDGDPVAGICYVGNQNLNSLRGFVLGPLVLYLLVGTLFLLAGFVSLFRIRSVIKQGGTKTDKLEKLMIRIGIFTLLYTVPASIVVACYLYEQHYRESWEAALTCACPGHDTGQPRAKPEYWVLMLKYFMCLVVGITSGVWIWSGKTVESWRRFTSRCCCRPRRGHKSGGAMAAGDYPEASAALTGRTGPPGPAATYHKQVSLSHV

Row | Molecule | other: % of cells with strong recruitment (category 'strong') (SNAP-FZD5) | binding result [1] | further results
1 | DEP tagged with GFP (DEP-GFP), wild type (from UniProt O14641) S435A | 97 % of cells | – | –
2 | DEP tagged with GFP (DEP-GFP), wild type (from UniProt O14641) S418A | 98 % of cells | – | –
3 | DEP tagged with GFP (DEP-GFP), wild type (from UniProt O14641) S418E | 100 % of cells | – | –
4 | DEP tagged with GFP (DEP-GFP), wild type (from UniProt O14641) S435E | 99 % of cells | – | –
5 | DEP tagged with GFP (DEP-GFP), wild type (from UniProt O14641) L445E | – | – | other: % of cells with no recruitment (category 'none') (SNAP-FZD5): 94 % of cells
6 | Lipoyl-tagged DEP (Lip-DEP_(402–510)), wild type (domain or fragment, human, UniProt O14641 402-510, looked up, also called Lip-DEP402 to 510; source: E. coli BL21-CodonPlus(DE3)-RIL, purified (NiNTA, SEC)) ITSGSSLPDGCEGRGLSVHTDMASVTKAMAAPESGLEVRDRMWLKITIPNAFLGSDVVDWLYHHVEGFPERREARKYASGLLKAGLIRHTVNKITFSEQCYYVFGDLSG | – | – | stoichiometry N [1]: 2
7 | Lip-DEP_(402–510) S435E (domain or fragment, human, UniProt O14641 402-510, looked up, source: E. coli BL21-CodonPlus(DE3)-RIL, purified (NiNTA, SEC)) ITSGSSLPDGCEGRGLSVHTDMASVTKAMAAPEEGLEVRDRMWLKITIPNAFLGSDVVDWLYHHVEGFPERREARKYASGLLKAGLIRHTVNKITFSEQCYYVFGDLSG | – | binds | –
8 | Lip-DEP_(402–510) S435A (domain or fragment, human, UniProt O14641 402-510, looked up, source: E. coli BL21-CodonPlus(DE3)-RIL, purified (NiNTA, SEC)) ITSGSSLPDGCEGRGLSVHTDMASVTKAMAAPEAGLEVRDRMWLKITIPNAFLGSDVVDWLYHHVEGFPERREARKYASGLLKAGLIRHTVNKITFSEQCYYVFGDLSG | – | binds | –
9 | Lip-DEP_(402–510) S418E (domain or fragment, human, UniProt O14641 402-510, looked up, source: E. coli BL21-CodonPlus(DE3)-RIL, purified (NiNTA, SEC)) ITSGSSLPDGCEGRGLEVHTDMASVTKAMAAPESGLEVRDRMWLKITIPNAFLGSDVVDWLYHHVEGFPERREARKYASGLLKAGLIRHTVNKITFSEQCYYVFGDLSG | – | binds | –
10 | Lip-DEP_(402–510) S418A (domain or fragment, human, UniProt O14641 402-510, looked up, source: E. coli BL21-CodonPlus(DE3)-RIL, purified (NiNTA, SEC)) ITSGSSLPDGCEGRGLAVHTDMASVTKAMAAPESGLEVRDRMWLKITIPNAFLGSDVVDWLYHHVEGFPERREARKYASGLLKAGLIRHTVNKITFSEQCYYVFGDLSG | – | binds | –
11 | cleaved wt DEP monomer (Lip tag removed) (domain or fragment, human, UniProt O14641 402-510, looked up, also called monomeric DEP; source: E. coli BL21-CodonPlus(DE3)-RIL, purified (NiNTA, SEC), Lip tag removed by tobacco etch virus protease) ITSGSSLPDGCEGRGLSVHTDMASVTKAMAAPESGLEVRDRMWLKITIPNAFLGSDVVDWLYHHVEGFPERREARKYASGLLKAGLIRHTVNKITFSEQCYYVFGDLSG | – | – | stoichiometry N [2]: 2
